Data: patent US7976843B2, “Method for screening peptides for use in immunotherapy” (Institut National de la Santa et de la Recherche Medicale …, priority 2000, dated 2011)
Like-named read-outs stand apart in the source and are kept apart here.

Assays:
[1] = tested on: RMAS-HHD targets loaded with peptide; test: Immunogenicity: CTL generation in HHD transgenic mice, 51Cr lysis of peptide-loaded targets; assay type: in vivo; settings: for immunogenicity (in words): HHD mice (also humans); for Responders/total mice: HHD mice, 100 μg peptide s.c., responder: specific cytotoxicity >15% above unloaded targets
HLA A2.1 molecule [2] = molecular target: T1, HLA A2.1 molecule (Homo sapiens, UniProt P04439, D140Y/D185E/D98H/E176V/E277Q/G131W/G231S/I119V/I121R/I166T/I218V/L300P/L318F/N151K/N90K/P208A/P217A/Q86G/Q94H/R138H/R169H/T345S); assay type: binding
HLA A2.1 molecule [3] = molecular target: T1, HLA A2.1 molecule; test: Stability of the peptide/HLA A2.1 complex (DC50) on T2 cells, flow cytometry; assay type: binding; settings: for DC, Native peptides: HIV 1 peptides
Description: For each incubation time, the cells are then labeled, as indicated above, with the BB7.2 antibody, and analyzed by flow cytometry in order to evaluate the amount of peptide/HLA A2.1 complex present at their surface. […] The DC50 (dissociation complex: DC) is defined as being the time required for the loss of 50% of the HLA A2.1/peptide complexes stabilized at t=0.

[4] = tested on: RMA-HHH cells infected with recombinant vaccinia virus expressing gag or pol of HIV1; assay type: cell-based, human
[5] = tested on: HLA A2.1+/hTERT+ human tumor cells U266; test: Human CTLs tested for killing of U266 tumor cells; assay type: cell-based; settings: E/T 40/1, 20/1, 10/1; FIG. 10
Description: CTLs generated from human PBMCs, originating from healthy donors, stimulated in vitro with autologous dendritic cells loaded with the variant peptide mhp 572Y1 or the variant peptide mhp 988Y1 were tested for their ability to kill HLA A2.1+/hTERT+ human tumor cells: U266 [VONDERHEIDE, Immunity, 10, 11, (1999)], or HSS HLA A2.1−/hTERT+ human tumor cells: [VONDERHEIDE, Immunity, 10, 11, (1999)].

[6] = tested on: RMAS-HHD cells loaded with peptide; test: Vax1/pet-neu immunization: CTL lysis of peptide-loaded RMAS-HHD cells; assay type: in vivo, HHD mice; settings: CTLs of a Vax1/pet-neu immunized mouse; RMAS-HHD targets loaded with the named peptide; FIG. 14
Description: One week after the final immunization, their spleen cells are restimulated in vitro with B cells activated with LPS and loaded with each of the twelve peptides.
The cytotoxicity is evaluated using RMAS-HHD cells (target cells) loaded with the peptide corresponding to that with which the B cells were loaded or with a control peptide.
Six mice are immunized with either the Vax1/pet-neu construct or the vector Vax1. Their spleen cells are stimulated in vitro in a repeated manner with the B cells activated with LPS and loaded with each peptide to be tested (effector cells).
The cytotoxicity is tested after the third stimulation in vitro. The RMAS-HHD cells, loaded with the peptide corresponding to that with which the B cells were loaded, or with a control peptide, and the EL-4/HHD/neu cells are used as target cells.

EL-4/HHD/neu tumor cells = test: Antitumor protection after peptide vaccination, EL-4/HHD/neu graft; settings: 10 HHD mice, two injections two weeks apart; EL-4/HHD/neu graft
[7] = native TERT peptides, reference peptide HIVpol 589
[8] = native peptides, relative affinity vs reference peptide HIVpol 589, lower RA = stronger binding

Sequence: LLDTGADDTV [L10V]
- immunogenicity (in words) [1]: not immunogenic
- RA, P1Y peptides (HLA A2.1 molecule [2]): 1.5
- RA, Native peptides (HLA A2.1 molecule [2]; HIV 1 peptides, […]): 10
- DC, P1Y peptides (HLA A2.1 molecule [3]): 4 h
- DC, Native peptides (HLA A2.1 molecule [3]): <2 h
- natural presentation by cells expressing HLA-A2.1 and the viral protein [4]: naturally presented

Sequence: DLQVNSLQTV [mhp 988]
- RA (HLA A2.1 molecule [2]; [7]): 28.6
- DC50 (HLA A2.1 molecule [3]; native TERT peptides): <2 h
- lysis of U266 tumor cells / natural presentation by human tumor cells [5]: naturally presented by the human tumor cells

Sequence: VMAGVGSPYV [HER-2/neu 773, reference compound]
- specific lysis above background noise [6]: 30%
- Responders/total mice [1]: 2/3
- RA (HLA A2.1 molecule [2]; [8]): 1.7

Sequence: RLFFYRKSV [mhp 572]
- RA (HLA A2.1 molecule [2]; [7]): 25.3
- DC50 (HLA A2.1 molecule [3]; native TERT peptides): <2 h
- lysis of U266 tumor cells / natural presentation by human tumor cells [5]: naturally presented by the human tumor cells

Sequence: YLEEITGYL [HER-2/neu 402Y1]
- specific lysis above background noise [6]: 30%
- RA (HLA A2.1 molecule [2]): 3.7
- tumor size at D28 (EL-4/HHD/neu tumor cells): 323±116 mm^2
- DC50 (HLA A2.1 molecule [3]): 4 h

Sequence: EMMTACQGV [E9V]
- immunogenicity (in words) [1]: not immunogenic
- RA, P1Y peptides (HLA A2.1 molecule [2]): 1.7
- DC, P1Y peptides (HLA A2.1 molecule [3]): >6 h
- DC, Native peptides (HLA A2.1 molecule [3]): <2 h
- natural presentation by cells expressing HLA-A2.1 and the viral protein [4]: naturally presented

Sequence: QLMPYGCLL [HER-2/neu 799, reference compound]
- specific lysis above background noise [6]: 30%
- Responders/total mice [1]: 3/4
- RA (HLA A2.1 molecule [2]; [8]): 1.0
- DC50 Y1-DC50 WT (HLA A2.1 molecule [3]; […], arrow in neighbouring cell gives direction): >2 h
- DC50 (HLA A2.1 molecule [3]; native peptides, time for loss of 50% of HLA A2.1/peptide complexes): 6 to 8 h

Sequence: YLQPEQLQV [HER-2/neu 391Y1]
- specific lysis above background noise [6]: 30%
- RA (HLA A2.1 molecule [2]): 1.3
- DC50 (HLA A2.1 molecule [3]): 6 h

Sequence: RLLQETELV [HER-2/neu 689]
- specific lysis above background noise [6]: 30%
- Responders/total mice [1]: 5/6
